The supplement of paper PMC9112550, “Optimization of the antimicrobial peptide Bac7 by deep mutational scanning” (BMC Biology, 2022)

test system: Escherichia coli TOP10; test: shrunken log2 fold change of peptide-encoding DNA abundance (4.5 h post-induction vs induction); higher = less antimicrobial activity (less host growth inhibition); settings: time post-induction: 4.5 h; library: site-saturation at positions 5, 18, 19, 20
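Note: peptides expressed intracellularly from a pBAD plasmid library in pooled LB shake-flask culture, induced with 0.3% L-arabinose, DNA abundance read by NGS, three biological replicates, DESeq2 with apeglm shrinkage.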

Sequence | shrunken log2 fold change
RRIRPRPPRLPRPRPRPDKKPRP | -0.429
RRIRLRPPRLPRPRPRPEWCPRP | -0.131
RRIRQRPPRLPRPRPRPDLDPRP | 0.0552
RRIRYRPPRLPRPRPRPNWKPRP | 0.138
RRIRWRPPRLPRPRPRPPNNPRP | -0.0673
RRIRRRPPRLPRPRPRPVHCPRP | 0.345
RRIRLRPPRLPRPRPRPPWMPRP | 0.167
RRIRQRPPRLPRPRPRPSERPRP | -0.143
RRIRCRPPRLPRPRPRPPRKPRP | 1.01
RRIRLRPPRLPRPRPRPIFPPRP | 0.0478
RRIRQRPPRLPRPRPRPQIFPRP | -0.0511
RRIRHRPPRLPRPRPRPEDNPRP | -0.0032
RRIRSRPPRLPRPRPRPAHWPRP | 0.416
RRIRARPPRLPRPRPRPWTSPRP | -0.064
RRIRFRPPRLPRPRPRPMHMPRP | -0.011
RRIRKRPPRLPRPRPRPTDWPRP | 0.169
RRIRGRPPRLPRPRPRPMFIPRP | 0.0775
RRIRVRPPRLPRPRPRPDWSPRP | -0.316
RRIRCRPPRLPRPRPRPMDFPRP | -0.151
RRIRTRPPRLPRPRPRPHEWPRP | 0.00742
RRIRYRPPRLPRPRPRPYHQPRP | -0.662
RRIRRRPPRLPRPRPRPLAWPRP | 0.226
RRIRKRPPRLPRPRPRPPINPRP | -0.0392
RRIRWRPPRLPRPRPRPQHPPRP | 0.0134
RRIRGRPPRLPRPRPRPPPHPRP | 1.26

Sequence | shrunken log2 fold change
RRIRIRPPRLPRPRPRPTDMPRP | -0.385
RRIRRRPPRLPRPRPRPDFKPRP | 0.151
RRIRSRPPRLPRPRPRPNEAPRP | 0.162
RRIRFRPPRLPRPRPRPCCTPRP | -0.337
RRIRSRPPRLPRPRPRPYLLPRP | -0.613
RRIRFRPPRLPRPRPRPVQHPRP | -0.044
RRIRKRPPRLPRPRPRPFAFPRP | 0.272
RRIRVRPPRLPRPRPRPMHWPRP | 0.253
RRIRPRPPRLPRPRPRPKAQPRP | -0.155
RRIRPRPPRLPRPRPRPEFFPRP | -0.00122
RRIRWRPPRLPRPRPRPMIEPRP | 0.0215
RRIRYRPPRLPRPRPRPESGPRP | -0.0308
RRIRKRPPRLPRPRPRPSSVPRP | -0.378
RRIRQRPPRLPRPRPRPHPYPRP | -0.0131
RRIRKRPPRLPRPRPRPPAIPRP | 0.657
RRIRVRPPRLPRPRPRPFHKPRP | -0.385
RRIRHRPPRLPRPRPRPPDCPRP | 0.182
RRIRDRPPRLPRPRPRPAKVPRP | 0.114
RRIRFRPPRLPRPRPRPEDLPRP | 0.143
RRIRLRPPRLPRPRPRPEAHPRP | -0.187
RRIRFRPPRLPRPRPRPQDHPRP | -0.391
RRIRMRPPRLPRPRPRPMFMPRP | 0.0101
RRIRARPPRLPRPRPRPTWVPRP | 0.225
RRIRCRPPRLPRPRPRPAAKPRP | 0.164
RRIRLRPPRLPRPRPRPKDGPRP | -0.0687

Sequence | shrunken log2 fold change
RRIRDRPPRLPRPRPRPTSTPRP | 0.231
RRIRKRPPRLPRPRPRPHREPRP | -0.0175
RRIRYRPPRLPRPRPRPSAVPRP | -0.175
RRIRQRPPRLPRPRPRPIFLPRP | 0.805
RRIRNRPPRLPRPRPRPNRHPRP | -0.17
RRIRWRPPRLPRPRPRPFIMPRP | -0.0374
RRIRRRPPRLPRPRPRPHRAPRP | 0.243
RRIRGRPPRLPRPRPRPITCPRP | -0.00623
RRIRTRPPRLPRPRPRPIYVPRP | -0.34
RRIRVRPPRLPRPRPRPDQYPRP | -0.234
RRIRQRPPRLPRPRPRPMCMPRP | 0.0416
RRIRYRPPRLPRPRPRPFTLPRP | -0.019
RRIRYRPPRLPRPRPRPHEYPRP | -0.354
RRIRFRPPRLPRPRPRPSMLPRP | -0.47
RRIRPRPPRLPRPRPRPPDCPRP | -0.0878
RRIRPRPPRLPRPRPRPNDHPRP | -0.386
RRIRERPPRLPRPRPRPAERPRP | 0.104
RRIRERPPRLPRPRPRPCLYPRP | -0.489
RRIRWRPPRLPRPRPRPCQNPRP | -0.118
RRIRKRPPRLPRPRPRPGNCPRP | 0.0147
RRIRARPPRLPRPRPRPGKRPRP | 0.374
RRIRFRPPRLPRPRPRPTFWPRP | -0.0559
RRIRKRPPRLPRPRPRPSVNPRP | -0.0205
RRIRKRPPRLPRPRPRPFWYPRP | 0.0709
RRIRERPPRLPRPRPRPFHHPRP | 0.0149
